IntAct's records for PubMed 29039417

B1: BBSome complex member BBS5 (Homo sapiens), Q8N3I7 (parent)
chain: MSVLDALWEDRDVRFDLSAQQMKTRPGEVLIDCLDSIEDTKGNNGDRGRLLVTNLRILWHSLALSRVNVSVGYNCILNITTRTANSKLRGQTEALYILTKCNSTRFEFIFTNLVPGSPRLFTSVMAVHRAYETSKMYRDFKLRSALIQNKQLRLLPQEHVYDKINGVWNLSSDQGNLGTFFITNVRIVWHANMNDSFNVSIPYLQIRSIKIRDSKFGLALVIESSQQSGGYVLGFKIDPVEKLQESVKEINSLHKVYSASPIFGVDYEMEEKPQPLEALTVEQIQDDVEIDSDGHTDAFVAYFADGNKQQDREPVFSEELGLAIEKLKDGFTLQGLWEVMS
partner: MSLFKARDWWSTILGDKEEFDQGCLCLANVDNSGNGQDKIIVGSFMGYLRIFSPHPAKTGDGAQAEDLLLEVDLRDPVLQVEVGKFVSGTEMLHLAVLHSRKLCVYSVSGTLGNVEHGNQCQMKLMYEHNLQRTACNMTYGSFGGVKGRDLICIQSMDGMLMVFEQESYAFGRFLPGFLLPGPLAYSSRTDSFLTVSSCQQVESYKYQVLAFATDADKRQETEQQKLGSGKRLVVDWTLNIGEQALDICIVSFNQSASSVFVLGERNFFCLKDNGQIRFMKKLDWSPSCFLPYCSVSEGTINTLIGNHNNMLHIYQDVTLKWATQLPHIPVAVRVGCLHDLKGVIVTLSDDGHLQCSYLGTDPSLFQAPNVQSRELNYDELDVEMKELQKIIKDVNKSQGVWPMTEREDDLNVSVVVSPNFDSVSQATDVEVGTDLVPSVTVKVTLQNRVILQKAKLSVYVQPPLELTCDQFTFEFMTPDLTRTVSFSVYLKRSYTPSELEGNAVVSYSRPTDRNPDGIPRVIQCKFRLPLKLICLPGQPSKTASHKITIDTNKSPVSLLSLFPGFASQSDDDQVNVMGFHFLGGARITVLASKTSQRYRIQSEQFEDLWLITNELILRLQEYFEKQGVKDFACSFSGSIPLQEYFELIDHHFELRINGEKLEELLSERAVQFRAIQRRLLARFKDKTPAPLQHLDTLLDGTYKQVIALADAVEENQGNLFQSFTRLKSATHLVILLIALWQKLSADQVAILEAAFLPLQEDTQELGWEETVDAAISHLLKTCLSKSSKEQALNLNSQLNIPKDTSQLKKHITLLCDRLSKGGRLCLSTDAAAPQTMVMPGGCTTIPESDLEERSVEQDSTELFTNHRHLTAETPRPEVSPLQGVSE

Variants of: B1
Conditions: with pthb1_human BBS9, Q3SYG4

Variant	effect of a mutation on the interaction
MSVLDALWEDRDVRFDLSAQQMKTRPGEVLIDCLDSIEDTKGNNGDRGRLLVTNLRILWHSLALSRVNVSVGYNCILNITTRTANSKLRGQTEALYILKKCNSTRFEFIFTNLVPGSPRLFTSVMAVHRAYETSKMYRDFKLRSALIQNKQLRLLPQEHVYDKINGVWNLSSDQGNLGTFFITNVRIVWHANMNDSFNVSIPYLQIRSIKIRDSKFGLALVIESSQQSGGYVLGFKIDPVEKLQESVKEINSLHKVYSASPIFGVDYEMEEKPQPLEALTVEQIQDDVEIDSDGHTDAFVAYFADGNKQQDREPVFSEELGLAIEKLKDGFTLQGLWEVMS [T99K]	with no effect
MSVLDALWEDRDVRFDLSAQQMKTRPGEVLIDCLDSIEDTKGNNGDRGRLLVTNLRILWHSLALSRVNVSVGYNCILNITTRTANSKLRGQTEALYILAKCNSTRFEFIFTNLVPGSPRLFTSVMAVHRAYETSKMYRDFKLRSALIQNKQLRLLPQEHVYDKINGVWNLSSDQGNLGTFFITNVRIVWHANMNDSFNVSIPYLQIRSIKIRDSKFGLALVIESSQQSGGYVLGFKIDPVEKLQESVKEINSLHKVYSASPIFGVDYEMEEKPQPLEALTVEQIQDDVEIDSDGHTDAFVAYFADGNKQQDREPVFSEELGLAIEKLKDGFTLQGLWEVMS [T99A]	with no effect
MSVLDALWEDRDVRFDLSAQQMKTRPGEVLIDCLDSIEDTKGNNGDRGRLLVTNLRILWHSLALSRVNVSVGYNCILNITTRTANSKLRGQTEALYILEKCNSTRFEFIFTNLVPGSPRLFTSVMAVHRAYETSKMYRDFKLRSALIQNKQLRLLPQEHVYDKINGVWNLSSDQGNLGTFFITNVRIVWHANMNDSFNVSIPYLQIRSIKIRDSKFGLALVIESSQQSGGYVLGFKIDPVEKLQESVKEINSLHKVYSASPIFGVDYEMEEKPQPLEALTVEQIQDDVEIDSDGHTDAFVAYFADGNKQQDREPVFSEELGLAIEKLKDGFTLQGLWEVMS [T99E]	disrupting interaction strength
MSVLDALWEDRDVRFDLSAQQMKTRPGEVLIDCLDSIEDTKGNNGDRGRLLVTNLRILWHSLALSRVNVSVGYNCILNITTRTANSKLRGQTEALYILTECNSTRFEFIFTNLVPGSPRLFTSVMAVHRAYETSKMYRDFKLRSALIQNKQLRLLPQEHVYDKINGVWNLSSDQGNLGTFFITNVRIVWHANMNDSFNVSIPYLQIRSIKIRDSKFGLALVIESSQQSGGYVLGFKIDPVEKLQESVKEINSLHKVYSASPIFGVDYEMEEKPQPLEALTVEQIQDDVEIDSDGHTDAFVAYFADGNKQQDREPVFSEELGLAIEKLKDGFTLQGLWEVMS [K100E]	with no effect
MSVLDALWEDRDVRFDLSAQQMKTRPGEVLIDCLDSIEDTKGNNGDRGRLLVTNLRILWHSLALSRVNVSVGYNCILNITTRTANSKLRGQTEALYILTACNSTRFEFIFTNLVPGSPRLFTSVMAVHRAYETSKMYRDFKLRSALIQNKQLRLLPQEHVYDKINGVWNLSSDQGNLGTFFITNVRIVWHANMNDSFNVSIPYLQIRSIKIRDSKFGLALVIESSQQSGGYVLGFKIDPVEKLQESVKEINSLHKVYSASPIFGVDYEMEEKPQPLEALTVEQIQDDVEIDSDGHTDAFVAYFADGNKQQDREPVFSEELGLAIEKLKDGFTLQGLWEVMS [K100A]	with no effect
MSVLDALWEDRDVRFDLSAQQMKTRPGEVLIDCLDSIEDTKGNNGDRGRLLVTNLRILWHSLALSRVNVSVGYNCILNITTRTANSKLRGQTEALYIETKCNSTRFEFIFTNLVPGSPRLFTSVMAVHRAYETSKMYRDFKLRSALIQNKQLRLLPQEHVYDKINGVWNLSSDQGNLGTFFITNVRIVWHANMNDSFNVSIPYLQIRSIKIRDSKFGLALVIESSQQSGGYVLGFKIDPVEKLQESVKEINSLHKVYSASPIFGVDYEMEEKPQPLEALTVEQIQDDVEIDSDGHTDAFVAYFADGNKQQDREPVFSEELGLAIEKLKDGFTLQGLWEVMS [L98E]	with no effect
MSVLDALWEDRDVRFDLSAQQMKTRPGEVLIDCLDSIEDTKGNNGDRGRLLVTNLRILWHSLALSRVNVSVGYNCILNITTRTANSKLRGQTEALYIKTKCNSTRFEFIFTNLVPGSPRLFTSVMAVHRAYETSKMYRDFKLRSALIQNKQLRLLPQEHVYDKINGVWNLSSDQGNLGTFFITNVRIVWHANMNDSFNVSIPYLQIRSIKIRDSKFGLALVIESSQQSGGYVLGFKIDPVEKLQESVKEINSLHKVYSASPIFGVDYEMEEKPQPLEALTVEQIQDDVEIDSDGHTDAFVAYFADGNKQQDREPVFSEELGLAIEKLKDGFTLQGLWEVMS [L98K]	with no effect
MSVLDALWEDRDVRFDLSAQQMKTRPGEVLIDCLDSIEDTKGNNGDRGRLLVTNLRILWHSLALSRVNVSVGYNCILNITTRTANSKLRGQTEALYIATKCNSTRFEFIFTNLVPGSPRLFTSVMAVHRAYETSKMYRDFKLRSALIQNKQLRLLPQEHVYDKINGVWNLSSDQGNLGTFFITNVRIVWHANMNDSFNVSIPYLQIRSIKIRDSKFGLALVIESSQQSGGYVLGFKIDPVEKLQESVKEINSLHKVYSASPIFGVDYEMEEKPQPLEALTVEQIQDDVEIDSDGHTDAFVAYFADGNKQQDREPVFSEELGLAIEKLKDGFTLQGLWEVMS [L98A]	with no effect
MSVLDALWEDRDVRFDLSAQQMKTRPGEVLIDCLDSIEDTKGNNGDRGRLLVTNLRILWHSLALSRVNVSVGYNCILNITTRTANSKLRGQTEALYKLTKCNSTRFEFIFTNLVPGSPRLFTSVMAVHRAYETSKMYRDFKLRSALIQNKQLRLLPQEHVYDKINGVWNLSSDQGNLGTFFITNVRIVWHANMNDSFNVSIPYLQIRSIKIRDSKFGLALVIESSQQSGGYVLGFKIDPVEKLQESVKEINSLHKVYSASPIFGVDYEMEEKPQPLEALTVEQIQDDVEIDSDGHTDAFVAYFADGNKQQDREPVFSEELGLAIEKLKDGFTLQGLWEVMS [I97K]	disrupting interaction strength
MSVLDALWEDRDVRFDLSAQQMKTRPGEVLIDCLDSIEDTKGNNGDRGRLLVTNLRILWHSLALSRVNVSVGYNCILNITTRTANSKLRGQTEALYELTKCNSTRFEFIFTNLVPGSPRLFTSVMAVHRAYETSKMYRDFKLRSALIQNKQLRLLPQEHVYDKINGVWNLSSDQGNLGTFFITNVRIVWHANMNDSFNVSIPYLQIRSIKIRDSKFGLALVIESSQQSGGYVLGFKIDPVEKLQESVKEINSLHKVYSASPIFGVDYEMEEKPQPLEALTVEQIQDDVEIDSDGHTDAFVAYFADGNKQQDREPVFSEELGLAIEKLKDGFTLQGLWEVMS [I97E]	with no effect
MSVLDALWEDRDVRFDLSAQQMKTRPGEVLIDCLDSIEDTKGNNGDRGRLLVTNLRILWHSLALSRVNVSVGYNCILNITTRTANSKLRGQTEALYILTKENSTRFEFIFTNLVPGSPRLFTSVMAVHRAYETSKMYRDFKLRSALIQNKQLRLLPQEHVYDKINGVWNLSSDQGNLGTFFITNVRIVWHANMNDSFNVSIPYLQIRSIKIRDSKFGLALVIESSQQSGGYVLGFKIDPVEKLQESVKEINSLHKVYSASPIFGVDYEMEEKPQPLEALTVEQIQDDVEIDSDGHTDAFVAYFADGNKQQDREPVFSEELGLAIEKLKDGFTLQGLWEVMS [C101E]	with no effect
MSVLDALWEDRDVRFDLSAQQMKTRPGEVLIDCLDSIEDTKGNNGDRGRLLVTNLRILWHSLALSRVNVSVGYNCILNITTRTANSKLRGQTEALYILTKANSTRFEFIFTNLVPGSPRLFTSVMAVHRAYETSKMYRDFKLRSALIQNKQLRLLPQEHVYDKINGVWNLSSDQGNLGTFFITNVRIVWHANMNDSFNVSIPYLQIRSIKIRDSKFGLALVIESSQQSGGYVLGFKIDPVEKLQESVKEINSLHKVYSASPIFGVDYEMEEKPQPLEALTVEQIQDDVEIDSDGHTDAFVAYFADGNKQQDREPVFSEELGLAIEKLKDGFTLQGLWEVMS [C101A]	with no effect

Now from value to variant:

effect of a mutation on the interaction	Variant
with no effect	MSVLDALWEDRDVRFDLSAQQMKTRPGEVLIDCLDSIEDTKGNNGDRGRLLVTNLRILWHSLALSRVNVSVGYNCILNITTRTANSKLRGQTEALYILTKCKSTRFEFIFTNLVPGSPRLFTSVMAVHRAYETSKMYRDFKLRSALIQNKQLRLLPQEHVYDKINGVWNLSSDQGNLGTFFITNVRIVWHANMNDSFNVSIPYLQIRSIKIRDSKFGLALVIESSQQSGGYVLGFKIDPVEKLQESVKEINSLHKVYSASPIFGVDYEMEEKPQPLEALTVEQIQDDVEIDSDGHTDAFVAYFADGNKQQDREPVFSEELGLAIEKLKDGFTLQGLWEVMS [N102K]
with no effect	MSVLDALWEDRDVRFDLSAQQMKTRPGEVLIDCLDSIEDTKGNNGDRGRLLVTNLRILWHSLALSRVNVSVGYNCILNITTRTANSKLRGQTEALYILTKCASTRFEFIFTNLVPGSPRLFTSVMAVHRAYETSKMYRDFKLRSALIQNKQLRLLPQEHVYDKINGVWNLSSDQGNLGTFFITNVRIVWHANMNDSFNVSIPYLQIRSIKIRDSKFGLALVIESSQQSGGYVLGFKIDPVEKLQESVKEINSLHKVYSASPIFGVDYEMEEKPQPLEALTVEQIQDDVEIDSDGHTDAFVAYFADGNKQQDREPVFSEELGLAIEKLKDGFTLQGLWEVMS [N102A]
with no effect	MSVLDALWEDRDVRFDLSAQQMKTRPGEVLIDCLDSIEDTKGNNGDRGRLLVTNLRILWHSLALSRVNVSVGYNCILNITTRTANSKLRGQTEALYILTKCESTRFEFIFTNLVPGSPRLFTSVMAVHRAYETSKMYRDFKLRSALIQNKQLRLLPQEHVYDKINGVWNLSSDQGNLGTFFITNVRIVWHANMNDSFNVSIPYLQIRSIKIRDSKFGLALVIESSQQSGGYVLGFKIDPVEKLQESVKEINSLHKVYSASPIFGVDYEMEEKPQPLEALTVEQIQDDVEIDSDGHTDAFVAYFADGNKQQDREPVFSEELGLAIEKLKDGFTLQGLWEVMS [N102E]
with no effect	MSVLDALWEDRDVRFDLSAQQMKTRPGEVLIDCLDSIEDTKGNNGDRGRLLVTNLRILWHSLALSRVNVSVGYNCILNITTRTANSKLRGQTEALYILTKCNATRFEFIFTNLVPGSPRLFTSVMAVHRAYETSKMYRDFKLRSALIQNKQLRLLPQEHVYDKINGVWNLSSDQGNLGTFFITNVRIVWHANMNDSFNVSIPYLQIRSIKIRDSKFGLALVIESSQQSGGYVLGFKIDPVEKLQESVKEINSLHKVYSASPIFGVDYEMEEKPQPLEALTVEQIQDDVEIDSDGHTDAFVAYFADGNKQQDREPVFSEELGLAIEKLKDGFTLQGLWEVMS [S103A]
with no effect	MSVLDALWEDRDVRFDLSAQQMKTRPGEVLIDCLDSIEDTKGNNGDRGRLLVTNLRILWHSLALSRVNVSVGYNCILNITTRTANSKLRGQTEALYILTKKNSTRFEFIFTNLVPGSPRLFTSVMAVHRAYETSKMYRDFKLRSALIQNKQLRLLPQEHVYDKINGVWNLSSDQGNLGTFFITNVRIVWHANMNDSFNVSIPYLQIRSIKIRDSKFGLALVIESSQQSGGYVLGFKIDPVEKLQESVKEINSLHKVYSASPIFGVDYEMEEKPQPLEALTVEQIQDDVEIDSDGHTDAFVAYFADGNKQQDREPVFSEELGLAIEKLKDGFTLQGLWEVMS [C101K]
